Results taken from article PMC2787876 (Journal of molecular biology, 2009).
Numbering of substitutions follows the chain as printed.

B1: arrestin1 2A-3A-h3A (natural protein, bovine, UniProt P08168 1-404, looked up)
chain: MKANKPAPNHVIFKKISRDKSVTIYLGKRDYIDHVERVEPVDGAVAVDPELVKGKRVYVSLTCAFRYGQEDIDVMGLSFRRDLYFSQVQVFPPVGASGATTRAQESAIKKAGANTYPFLLTFPDYLPCSVMLQPAPQDVGKSCGVDFEIKAFATHSTDVEEDKIPKKSSVRLLIRKVQHAPRDMGPQPRAEASWQFFMSDKPLRLAVSLSKEIYYHGEPIPVTVAVTNSTEKTVKKIKVLVEQVTNVVLYSSDYYIKTVAAEEAQEKVPPNSSLTKTLTLVPLLANNRERRGIALDGKIKHEDTNLASSTIIKEGIDKTVMGILVSYQIKVKLTVSGLLGELTSSEVATEVPFRLMHPQPEDPDTAKESFQDENAAAEEFARQNLKDAGEYKEEKTDQEAAMDE
modifications: [3H]leucine and [14C]leucine incorporated
B2: arrestin1 h3A on the background of the 3A mutation (natural protein, bovine, UniProt P08168 1-404, looked up)
chain: B1 chain with A44V, A46L
modifications: [3H]leucine and [14C]leucine incorporated

Molecular target: light activated unphosphorylated rhodopsin (UniProt P02699 1-348, retinal chromophore, light-activated)
Sequence (P02699 whole entry): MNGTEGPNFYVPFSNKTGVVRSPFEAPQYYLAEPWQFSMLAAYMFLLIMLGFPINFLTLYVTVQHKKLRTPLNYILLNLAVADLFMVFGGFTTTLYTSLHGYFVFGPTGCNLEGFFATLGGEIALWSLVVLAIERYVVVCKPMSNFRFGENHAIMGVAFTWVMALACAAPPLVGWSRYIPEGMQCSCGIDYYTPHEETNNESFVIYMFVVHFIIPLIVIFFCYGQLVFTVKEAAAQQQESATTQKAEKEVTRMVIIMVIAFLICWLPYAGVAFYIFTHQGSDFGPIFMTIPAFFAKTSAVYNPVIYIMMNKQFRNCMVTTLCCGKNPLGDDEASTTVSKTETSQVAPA
Assay: dissociation of the complex after dilution

Row | Binder | half-life of the complex (t1/2)
1 | B1 | 1.2 ± 0.117 h
2 | B2 | 1.28 ± 0.15 h
